In patent US20240115668A1, “TREATMENT OF SPINAL CORD INJURY WITH PTEN INHIBITOR” (KOLON TISSUEGENE, INC., priority 2020, published 2024):
Where no end group is shown, it is not given here.

How the values were obtained:
PTEN [1] = biological target: T1, PTEN (Homo sapiens, UniProt P60484); details: previous study of Odriozola et al.; read-out: IC50 (in vitro PTEN activity, Odriozola et al.); cited from earlier work
Target sequence in this assay (P60484 whole entry, species assumed): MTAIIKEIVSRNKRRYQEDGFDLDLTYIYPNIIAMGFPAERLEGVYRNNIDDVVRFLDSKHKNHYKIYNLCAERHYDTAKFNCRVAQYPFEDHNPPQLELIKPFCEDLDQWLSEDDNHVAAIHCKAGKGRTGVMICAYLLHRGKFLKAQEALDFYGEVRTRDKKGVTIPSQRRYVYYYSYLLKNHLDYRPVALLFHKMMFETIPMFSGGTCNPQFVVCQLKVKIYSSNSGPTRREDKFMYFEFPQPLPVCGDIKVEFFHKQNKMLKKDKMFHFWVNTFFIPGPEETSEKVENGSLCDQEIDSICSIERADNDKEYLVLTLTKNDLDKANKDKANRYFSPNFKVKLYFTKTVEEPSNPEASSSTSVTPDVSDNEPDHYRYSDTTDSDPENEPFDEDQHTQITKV

PTEN [2] = biological target: T1, PTEN; experiment: In vitro PTEN activity assay / IC50 assay (Malachite Green phosphate detection, C8-PIP3 liposome substrate); format: biochemical; parameters: purchased R&D Systems, Inc; details: 10 μM peptide, 20 ng recombinant human PTEN, 0.1 mM C8-PIP3 liposome
Target sequence in this assay (P60484 whole entry): as the sequence (P60484 whole entry, species assumed) above
Description: In vitro PTEN activity assay was designed to check PTEN lipid phosphatase activity to convert phosphatidylinositol triphosphate (PIP3) to phosphatidylinositol diphosphate (PIP2) and produce phosphate ion (Pi). 1,2-dioctanoyl-sn-glycero-3-phospho-(1′-myo-inositol-3,4,5-triphosphate) (C8-PIP3) was used as PTEN substrate and prepared as lipid vesicle (liposome) with other phospholipids because PTEN as lipid phosphatase is an interfacial enzyme. For liposome preparation, C8-PIP3, DOPS (1,2-dioeloyl-sn-glycero-phosphoserine) and DOPC (1,2-dioeloyl-sn-glycero-phosphocholine) were mixed together with 800 μL of liposome buffer (50 mM Tris, 100 mM NaCl, 10 mM MgCl2, 5 mM DTT, pH=8.0) to final concentration of 0.1 mM of C8-PIP3, 0.25 mM DOPS and 0.25 mM DOPC. The lipid mixture was then sonicated at 4° C. for 30 min to produce liposome. After sonication, the liposome solution was briefly centrifuged to remove remaining lipids.
For PTEN activity assay, 20 ng of recombinant human PTEN protein was mixed with L of completed liposome solution. PTEN assay buffer (1 mM Tris, 20 mM DTT and 0.5% NP-40, pH=8.0) was added up to 100 μL as final volume. […] After incubation, the inorganic phosphate ions produced by PTEN protein was detected using Malachite Green phosphate detection kit. […]
All data represent experimentation in triplicate and the IC50 values were calculated by Prism 5 software (GraphPad Software). […]

[3] = system: endogenous Akt protein in PC12 cells; experiment: Western blot of Akt activation (phosphorylation) level in PC12 cell lysates; format: cell-based, rat; details: differentiated PC12 cells, endogenous or overexpressed PTEN; TGN-1 10 and 100 μM, TGN-4 10 μM; 24 hr; anti-phospho Akt antibody
Protocol: PC12 rat pheochromocytoma cells were seeded to 6-well plate (0.6×10^6 cells/well) and cultured with DMEM media containing 7.5% FBS and 7.5% Goat Serum. After the cell confluency reached around 60˜ 70%, NGF (nerve growth factor, 50 ng/mL) was added to the PC12 cells for differentiation and incubated for 5 more days. Then, fresh media containing different amounts of TGN peptides in DMSO solution were added to each well and incubated further for 24 hr. For PTEN overexpression, PC12 cells were seeded in 6-well plate (1.0×10^6 cells/well) and differentiated with NGF (50 ng/mL) as above. DNA-Lipofectamine 2000 mixture was prepared for each well of cells to be transfected by firstly adding 2˜ 2.5 μg of human PTEN c-DNA into 500 μl of Opti-MEM. 3.75-8.75 μl of Lipofectamine 2000™ reagent was added next to the above diluted DNA solution, mixed gently and incubated for 25 minutes at room temperature. Growth media of PC12 cells in 6-well plate was exchanged with fresh media and 500 μl of the DNA-Lipofectamine 2000 complex was added to each well for transfection. Transfected cells were incubated at 37° C. in 5.0% CO2 incubator for 24-48 hours post-transfection before assaying for transgene expression.
After culturing, PC12 cells were collected from the 6-well plate and centrifuged down with bench-top centrifuger to make cell pellet (13,000 rpm, 5 min at RT). […]

Substance | IC50 (PTEN [1]) [µM] | Inhibition of PTEN activity (in words) (PTEN [2]) | Activation (phosphorylation) level of Akt protein [3]
Cp23: synthetic phosphomimic peptide of Odriozola et al. encompassing PTEN AA368-390, no phosphorylated Serine residues (DVSDNEPDHYRYSDTTDSDPENE; UniProt P60484 368-390, looked up, fragment) | ~1030 | – | –
RRRRRRRR-DEHDTEYTPDYRQETHFNSQPTDKSDVI-amide (RRRRRRRRDEHDTEYTPDYRQETHFNSQPTDKSDVI-NH2) [TGN-5, scrambled peptide of TGN-2/TGN-3] | – | no significant inhibition of PTEN activity | –
RRRRRRRR-SDDEYTDNPDSRYVSDTPVDTEH-amide (RRRRRRRRSDDEYTDNPDSRYVSDTPVDTEH-NH2) [TGN-4, scrambled peptide of TGN-1, negative control] | – | no significant inhibition of PTEN activity | did not increase the activation level of AKT protein
